For orientation: Kd means a measure of binding affinity in units of concentration.

The text below walks through data of US20150315272A1 (published 2015).

Test [1] concerns the target T1, Recombinant IL-17A/F heterodimer (IL-17A and IL-17F linked by a GS linker) (human).
T1 construct: also called heterodimer A/F; human recombinant IL-17A/F heterodimer
Description: Biacore 3000 SPR, 25 C, antibody captured by anti-mouse IgG Fc, cytokine titrated from 25 nM. A general note: Surface plasmon resonance follows binding to a sensor surface in real time, without labels.
Description: All experiments were performed at 25° C. Affinipure F(ab′)₂ fragment goat anti-mouse IgG, Fc fragment specific (Jackson ImmunoResearch) was immobilised on a CMS Sensor Chip (Biacore AB) via amine coupling chemistry to a capture level of ≈6000 response units (RUs). HBS-EP buffer (10 mM HEPES pH 7.4, 0.15 M NaCl, 3 mM EDTA, 0.005% Surfactant P20, Biacore AB) was used as the running buffer with a flow rate of 10 μL/min. […] The surface was regenerated at a flowrate of 10 uL/min by a 10 μL injection of 40 mM HCl, followed by a 5 μL injection of 5 mM NaOH.
Double referenced background subtracted binding curves were analysed using the BIAevaluation software (version 3.2) following standard procedures. Kinetic parameters were determined from the fitting algorithm.

In another test the target is T2, IL-17C (UniProt Q9P0M4 19-197).
T2 sequence (looked up): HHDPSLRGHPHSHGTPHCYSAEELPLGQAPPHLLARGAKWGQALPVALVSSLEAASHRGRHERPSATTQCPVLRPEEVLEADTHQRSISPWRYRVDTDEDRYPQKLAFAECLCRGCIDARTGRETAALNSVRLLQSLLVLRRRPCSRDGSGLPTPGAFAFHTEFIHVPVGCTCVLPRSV
Kind of test: Biacore 3000 SPR, antibody captured by anti-human IgG Fc.

In another test the target is T3, IL-17E (UniProt Q9H293 33-177).
T3 sequence (looked up): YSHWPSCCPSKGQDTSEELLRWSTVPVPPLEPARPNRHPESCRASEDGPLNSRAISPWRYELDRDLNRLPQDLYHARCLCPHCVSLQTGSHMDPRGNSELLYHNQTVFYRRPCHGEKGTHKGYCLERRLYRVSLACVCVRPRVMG
Described as above.

Another test addresses T4, IL-17D (UniProt Q8TAD2 18-202, limits assumed).
T4 sequence (looked up): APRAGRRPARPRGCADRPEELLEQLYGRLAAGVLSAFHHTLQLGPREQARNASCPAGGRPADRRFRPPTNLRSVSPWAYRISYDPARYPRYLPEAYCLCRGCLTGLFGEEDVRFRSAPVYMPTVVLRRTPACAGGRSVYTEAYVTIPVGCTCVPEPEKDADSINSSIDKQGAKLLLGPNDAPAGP
The test is described as above.

A further test has as its target T5, IL-17B (UniProt Q9UHF5 21-180).
T5 sequence (looked up): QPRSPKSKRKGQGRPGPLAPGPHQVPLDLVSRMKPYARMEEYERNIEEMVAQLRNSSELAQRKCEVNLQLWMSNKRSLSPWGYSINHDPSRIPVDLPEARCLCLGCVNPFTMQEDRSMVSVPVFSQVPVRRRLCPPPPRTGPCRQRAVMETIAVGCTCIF
Described as above.

T1 sequence (chain, as listed by the source limits assumed): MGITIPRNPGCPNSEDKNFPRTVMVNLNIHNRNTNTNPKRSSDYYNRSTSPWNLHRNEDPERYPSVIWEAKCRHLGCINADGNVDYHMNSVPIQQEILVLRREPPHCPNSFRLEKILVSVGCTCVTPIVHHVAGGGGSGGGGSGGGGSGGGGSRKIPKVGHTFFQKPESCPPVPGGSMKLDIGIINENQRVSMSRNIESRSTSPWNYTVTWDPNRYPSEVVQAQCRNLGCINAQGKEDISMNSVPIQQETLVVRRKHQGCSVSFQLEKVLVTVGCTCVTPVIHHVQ
Description for IL-17B: (§1) All experiments were performed at 25° C. Affinipure Fc Fragment goat anti-human IgG, Fc fragment specific (Jackson ImmunoResearch) was immobilised on a CMS Sensor Chip via amine coupling chemistry to a capture level of ≈6000 response units (RUs). HBS-EP buffer (10 mM HEPES pH 7.4, 0.15 M NaCl, 3 mM EDTA, 0.005% Surfactant P20, Biacore AB) was used as the running buffer with a flow rate of 10 μl/min. […] The surface was regenerated by a 30 μL injections of 40 mM HCl, followed by one 5 μL injection of 5 mM NaOH.
(§2) Background subtraction binding curves were double referenced and analysed using the BIAevaluation software (version 3.2) following standard procedures. Kinetic parameters were determined from the fitting algorithm.
Description for IL-17C: as §1, §2
Description for IL-17D: as §1, §2
Description for IL-17E: as §1, §2

B1: Antibody CA028-0496 (murine IgG1 constant regions) (antibody, V domains shown)
VH: EVQLVESGGGLVQPGGSLRLSCAASGFTFSDYNMAWVRQAPGKGLEWVATITYEGRNTYYRDSVKGRFTISRDNAKNSLYLQMNSLRAEDTAVYYCASPPQYYEGSIYRLWFAHWGQGTLVTVSS
VL: AIQLTQSPSSLSASVGDRVTITCRADESVTTLMHWYQQKPGKAPKLLIYLVSNRESGVPSRFSGSGSGTDFTLTISSLQPEDFATYYCQQTWSDPWTFGQGTKVEIKR
notes: captured by anti-mouse IgG Fc
Consider B1, for which the Kd in test [1] was found to be 0.116 nM.

B2: Antibody CA028-0496 (human IgG4 constant regions) (antibody, V domains shown)
VH: EVQLVESGGGLVQPGGSLRLSCAASGFTFSDYNMAWVRQAPGKGLEWVATITYEGRNTYYRDSVKGRFTISRDNAKNSLYLQMNSLRAEDTAVYYCASPPQYYEGSIYRLWFAHWGQGTLVTVSS
VL: AIQLTQSPSSLSASVGDRVTITCRADESVTTLMHWYQQKPGKAPKLLIYLVSNRESGVPSRFSGSGSGTDFTLTISSLQPEDFATYYCQQTWSDPWTFGQGTKVEIKR
notes: human gamma-4 constant region with hinge mutation S241P and human C-kappa (Km3), made in CHO cells; also called CA028496
Turning to B2, the binding result with IL-17C, with IL-17E, with IL-17D and in the test with IL-17B was “no binding” throughout.
